Test results published in the supplement of paper PMC9112550, “Optimization of the antimicrobial peptide Bac7 by deep mutational scanning” (BMC Biology, 2022).

Test system: Escherichia coli TOP10
Test: shrunken log2 fold change of peptide-encoding DNA abundance (4.5 h post-induction vs induction); higher = less antimicrobial activity (less host growth inhibition)
Settings: time post-induction: 4.5 h; library: site-saturation at positions 5, 18, 19, 20
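Also: peptides expressed intracellularly from a pBAD plasmid library in pooled LB shake-flask culture, induced with 0.3% L-arabinose, DNA abundance read by NGS, three biological replicates, DESeq2 with apeglm shrinkage.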

| Sequence | shrunken log2 fold change |
| --- | --- |
| RRIRFRPPRLPRPRPRPHQPPRP | 0.575 |
| RRIRRRPPRLPRPRPRPDEVPRP | 0.61 |
| RRIRGRPPRLPRPRPRPSSAPRP | 0.592 |
| RRIRDRPPRLPRPRPRPMSFPRP | -0.00238 |
| RRIRFRPPRLPRPRPRPCWHPRP | -0.259 |
| RRIRGRPPRLPRPRPRPESEPRP | 2 |
| RRIRVRPPRLPRPRPRPHNCPRP | -0.0364 |
| RRIRERPPRLPRPRPRPVFNPRP | -0.329 |
| RRIRARPPRLPRPRPRPWRLPRP | 0.466 |
| RRIRRRPPRLPRPRPRPNNSPRP | -0.356 |
| RRIRLRPPRLPRPRPRPVVFPRP | -0.136 |
| RRIRHRPPRLPRPRPRPHWSPRP | -0.205 |
| RRIRVRPPRLPRPRPRPQPKPRP | 0.0199 |
| RRIRGRPPRLPRPRPRPIMEPRP | 0.229 |
| RRIRNRPPRLPRPRPRPTDNPRP | -0.353 |
| RRIRPRPPRLPRPRPRPRYTPRP | -0.266 |
| RRIRVRPPRLPRPRPRPWIFPRP | -0.389 |
| RRIRYRPPRLPRPRPRPLITPRP | -0.749 |
| RRIRWRPPRLPRPRPRPILDPRP | 0.187 |
| RRIRKRPPRLPRPRPRPPPKPRP | 1.2 |
| RRIRHRPPRLPRPRPRPMSRPRP | -0.0252 |
| RRIRCRPPRLPRPRPRPRGEPRP | 0.435 |
| RRIRSRPPRLPRPRPRPCLAPRP | 0.0253 |
| RRIRSRPPRLPRPRPRPFTQPRP | -0.403 |
| RRIRNRPPRLPRPRPRPAQHPRP | 0.00182 |

| Sequence | shrunken log2 fold change |
| --- | --- |
| RRIRYRPPRLPRPRPRPLAQPRP | -0.17 |
| RRIRYRPPRLPRPRPRPETSPRP | 0.014 |
| RRIRDRPPRLPRPRPRPTQVPRP | 0.0721 |
| RRIRDRPPRLPRPRPRPPDIPRP | -0.0754 |
| RRIRVRPPRLPRPRPRPAENPRP | 0.15 |
| RRIRSRPPRLPRPRPRPADLPRP | 0.274 |
| RRIRERPPRLPRPRPRPLMMPRP | -0.263 |
| RRIRWRPPRLPRPRPRPLDEPRP | 0.53 |
| RRIRLRPPRLPRPRPRPPSLPRP | 0.0267 |
| RRIRGRPPRLPRPRPRPVTNPRP | 0.735 |
| RRIRPRPPRLPRPRPRPFCDPRP | -0.233 |
| RRIRFRPPRLPRPRPRPETVPRP | 0.0039 |
| RRIRGRPPRLPRPRPRPLWCPRP | 0.204 |
| RRIRKRPPRLPRPRPRPYSVPRP | -0.114 |
| RRIRPRPPRLPRPRPRPKGWPRP | 1.22 |
| RRIRNRPPRLPRPRPRPWNTPRP | 0.0705 |
| RRIRFRPPRLPRPRPRPWMRPRP | 0.495 |
| RRIRYRPPRLPRPRPRPFVCPRP | -0.0345 |
| RRIRNRPPRLPRPRPRPIPNPRP | -0.428 |
| RRIRNRPPRLPRPRPRPTHPPRP | -0.235 |
| RRIRLRPPRLPRPRPRPLDGPRP | -0.0562 |
| RRIRFRPPRLPRPRPRPRQAPRP | 0.128 |
| RRIRWRPPRLPRPRPRPKSIPRP | -0.017 |
| RRIRRRPPRLPRPRPRPVRSPRP | 0.551 |
| RRIRMRPPRLPRPRPRPLHFPRP | -0.0889 |

| Sequence | shrunken log2 fold change |
| --- | --- |
| RRIRMRPPRLPRPRPRPCCRPRP | 0.0467 |
| RRIRFRPPRLPRPRPRPQLYPRP | -0.588 |
| RRIRPRPPRLPRPRPRPYVGPRP | -0.157 |
| RRIRFRPPRLPRPRPRPTETPRP | -0.0161 |
| RRIRKRPPRLPRPRPRPFHVPRP | -0.265 |
| RRIRTRPPRLPRPRPRPIIKPRP | -0.67 |
| RRIRERPPRLPRPRPRPTWQPRP | 0.0759 |
| RRIRYRPPRLPRPRPRPCWCPRP | -0.0193 |
| RRIRDRPPRLPRPRPRPPTHPRP | 0.21 |
| RRIRGRPPRLPRPRPRPQKMPRP | 0.331 |
| RRIRRRPPRLPRPRPRPLILPRP | 0.0353 |
| RRIRQRPPRLPRPRPRPKPCPRP | -0.273 |
| RRIRSRPPRLPRPRPRPIMAPRP | 0.163 |
| RRIRCRPPRLPRPRPRPLNAPRP | -0.255 |
| RRIRLRPPRLPRPRPRPHPEPRP | 0.0233 |
| RRIRIRPPRLPRPRPRPDGCPRP | -0.229 |
| RRIRGRPPRLPRPRPRPDRNPRP | 0.0753 |
| RRIRERPPRLPRPRPRPVKIPRP | -0.181 |
| RRIRNRPPRLPRPRPRPTEMPRP | -0.283 |
| RRIRLRPPRLPRPRPRPELTPRP | 0.067 |
| RRIRNRPPRLPRPRPRPSIQPRP | -0.623 |
| RRIRKRPPRLPRPRPRPEILPRP | 0.728 |
| RRIRVRPPRLPRPRPRPHADPRP | 0.00219 |
| RRIRVRPPRLPRPRPRPEVRPRP | 0.0429 |
| RRIRRRPPRLPRPRPRPCQWPRP | 0.107 |

| Sequence | shrunken log2 fold change |
| --- | --- |
| RRIRGRPPRLPRPRPRPPISPRP | 0.163 |
| RRIRFRPPRLPRPRPRPFCDPRP | -0.352 |
| RRIRNRPPRLPRPRPRPRICPRP | 0.101 |
| RRIRQRPPRLPRPRPRPYAMPRP | -0.341 |
| RRIRWRPPRLPRPRPRPIINPRP | -0.609 |
| RRIRLRPPRLPRPRPRPQVIPRP | -0.136 |
| RRIRARPPRLPRPRPRPFWWPRP | 0.923 |
| RRIRARPPRLPRPRPRPLSVPRP | -0.0782 |
| RRIRDRPPRLPRPRPRPYALPRP | -0.051 |
| RRIRFRPPRLPRPRPRPKFWPRP | 0.265 |
| RRIRPRPPRLPRPRPRPDLPPRP | 0.315 |
| RRIRMRPPRLPRPRPRPILGPRP | -0.00884 |
| RRIRTRPPRLPRPRPRPIQIPRP | 0.0193 |
| RRIRYRPPRLPRPRPRPTPLPRP | 0.0136 |
| RRIRHRPPRLPRPRPRPLWEPRP | 0.0119 |
| RRIRGRPPRLPRPRPRPCTPPRP | 0.337 |
| RRIRMRPPRLPRPRPRPGNGPRP | 0.885 |
| RRIRWRPPRLPRPRPRPQPNPRP | 0.127 |
| RRIRARPPRLPRPRPRPQKSPRP | 0.0945 |
| RRIRYRPPRLPRPRPRPTRFPRP | 0.0879 |
| RRIRPRPPRLPRPRPRPVNLPRP | -0.136 |
| RRIRSRPPRLPRPRPRPSLAPRP | 0.164 |
| RRIRHRPPRLPRPRPRPPHRPRP | 0.198 |
| RRIRKRPPRLPRPRPRPQNLPRP | 0.0263 |
| RRIRPRPPRLPRPRPRPSKNPRP | -0.333 |

| Sequence | shrunken log2 fold change |
| --- | --- |
| RRIRKRPPRLPRPRPRPCSSPRP | -0.0581 |
| RRIRQRPPRLPRPRPRPSRAPRP | 0.19 |
| RRIRHRPPRLPRPRPRPPPYPRP | 0.00808 |
| RRIRDRPPRLPRPRPRPFHQPRP | -0.0388 |
| RRIRQRPPRLPRPRPRPILEPRP | -0.536 |
| RRIRIRPPRLPRPRPRPLCCPRP | -0.317 |
| RRIRVRPPRLPRPRPRPQLVPRP | -0.048 |
| RRIRRRPPRLPRPRPRPGWQPRP | 0.381 |
| RRIRQRPPRLPRPRPRPCTMPRP | -0.804 |
| RRIRERPPRLPRPRPRPTAAPRP | 0.456 |
| RRIRIRPPRLPRPRPRPNEQPRP | 0.0369 |
| RRIRERPPRLPRPRPRPSAGPRP | -0.118 |
| RRIRDRPPRLPRPRPRPLGWPRP | 0.366 |
| RRIRIRPPRLPRPRPRPAKYPRP | -0.247 |
| RRIRSRPPRLPRPRPRPDYYPRP | -0.831 |
| RRIRERPPRLPRPRPRPCERPRP | -0.0138 |
| RRIRPRPPRLPRPRPRPMKRPRP | 0.153 |
| RRIRCRPPRLPRPRPRPFTVPRP | -0.456 |
| RRIRRRPPRLPRPRPRPSIPPRP | -0.0753 |
| RRIRLRPPRLPRPRPRPRMHPRP | 0.136 |
| RRIRFRPPRLPRPRPRPWACPRP | -0.15 |
| RRIRRRPPRLPRPRPRPPWEPRP | 0.0894 |
| RRIRHRPPRLPRPRPRPACMPRP | 0.0463 |
| RRIRNRPPRLPRPRPRPSNEPRP | -0.717 |
| RRIRGRPPRLPRPRPRPFVCPRP | 0.327 |
